According to the supplement of paper PMC10567573:

B1: ZNF449 (parent)
chain: QLTGHQRIHSGEEPHKCPECGKRF
B2: C8orf76 (parent)
chain: YCAKLCEPQWFYEETESSDDVEVL

Variants of: B1
Assay: protein stability index of a GFP-peptide fusion (GPS, HEK-293T) (PSI 1-6); higher = more stable
Conditions: c terminus: a fixed tail appended
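Note: lentivirally expressed fusions sorted by FACS into six bins by GFP to DsRed ratio, PSI derived from sequencing read proportions per bin multiplied by bin number.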

Protein stability index, by site and new letter:
E12: N 4.21; I 3.63; F 2.54; H 4.05; D 4.15; Y 3.41; A 5.14; G 3.99; K 3.43; V 4.17; T 3.43; P 3.48; C 3.35; L 4.05; S 3.96; W 3.99; Q 3.29; M 3.73; R 4.01
R23: Q 3.44; N 3.95; W 3.92; P 4.28; V 4.72; L 4.74; D 4.99; T 4.52; K 5.28; M 4.06; S 4.83; E 5.37; G 4.32; F 3.98; A 4.91; H 4.23; C 3.93
G11: V 3.64; Q 4.01; F 3.77; D 4.5; S 4.17; K 4.09; I 3.52; L 3.87; W 3.76; N 3.86; Y 3.87; R 4.14; M 3.21; T 3.96; E 4.75; P 4.25; H 4.23
C20: R 5.4; V 3.71; F 4.39; E 5.41; A 4.35; W 4.34; L 4.05; N 4.49; Q 4.79; M 3.82; S 4.37; K 4.99; I 4.36; Y 4.67; T 4.87; H 4.46; G 4.49; D 5.03; P 4.61
H15: M 3.68; I 4.8; P 3.94; A 4.68; T 4.52; V 2.18; S 4.06; Q 4.31; C 5.22; L 3.65; E 4.28; N 4.52; R 3.76; K 3.66; F 4.22; Y 4.3
P18: C 3.74; E 4.17; V 4.55; Q 4.02; D 5.02; N 4.3; K 4.15; W 3.4; F 3.41; I 3.88; M 4.14; G 4.21; L 3.92; R 4.4; S 4.46; Y 3.64; A 3.92; T 3.98; H 3.61
K22: A 4.72; W 3.6; M 4.43; T 4.21; Y 4.3; E 4.62; N 4.16; P 4.22; V 4.51; Q 3.85; H 4.3; R 4; F 4.03; C 4.2; L 4.29; D 4.49; I 3.73; S 4.71
C17: R 4.36; G 3.56; W 3.92; S 4.43; I 4.4; V 4.76; M 4.72; K 5.14; D 5.48; L 4.58; E 4.89; T 3.98; H 4.17; Y 4.26; N 4.3; P 4.71; F 4.6; Q 4.38; A 4.4
E13: V 3.33; C 4.11; R 3.54; F 3.09; D 4.46; A 4.21; P 4.1; M 3.57; Q 3.63; W 3.57; Y 3.15; N 3.42; T 3.39; H 3.62; I 3.97; G 4.09; K 4.59; L 2.85
E19: Y 3.95; W 3.61; L 3.16; S 3.62; K 3.33; N 4.01; D 3.4; I 3.37; T 4.03; P 4.23; R 3.15; M 4.05; Q 3.23; V 4.53; H 4.12; G 3.09; F 3.69; C 2
F24: T 4.83; N 4.4; Q 4.62; A 5.07; G 4.7; H 4.84; C 5.12; L 4.64; M 4.13; E 4.88; I 3.65; Y 4.58
G21: A 4.21; L 4.6; W 3.73; Y 3.6; N 4.47; Q 4.47; E 4.87; F 4.19; V 4.49; P 4.7; D 4.36; I 4.34; T 4.47; S 4.32; K 4.41; C 3.77; M 4.53; R 4.34; H 4.08
K16: C 3.84; L 4.48; H 5; A 4.36; E 4.69; I 4.48; Y 3.61; R 3.41; F 3.48; T 4.43; N 4.54; P 4.23; G 3.97; M 3.94; W 4.14; V 4.58; S 5.11; D 4.82; Q 4.3
P14: N 4.49; Q 4.75; K 3.98; E 4.09; L 3.7; V 4.19; Y 4.65; C 4.22; M 4.05; A 4.33; D 4.84; I 4.5; F 4.38; S 4.88; R 3.75; H 3.88; W 4.5; G 4.5

Variants of: B2
Assay: as above
Conditions: c terminus: a fixed tail appended

Protein stability index of substitutions, site by site:
A3: Q 2.28; L 2.78; V 3.04; R 1.75; S 2.78; G 2.01; F 2.3; N 2.74; H 2.59; P 1.71; Y 2.83; I 2.51; M 3.1; E 4.06; C 2.7; D 3.48; T 2.45; K 3.07; W 1.95
K4: Q 3.46; H 2.84; L 2.71; A 2.54; G 1.98; I 2.29; Y 3.2; S 2.01; V 3.05; T 2.94; P 2.43; M 2.48; R 2.54; E 4.61; N 4.3; F 2.56; W 2.08; C 2.96; D 3.69
L5: C 3.03; G 2.99; I 1.98; K 2.05; D 3.42; M 2.97; F 2.29; H 2.72; E 2.94; A 2.62
Y1: A 4.42; W 3.66; D 5.04; F 1.91; R 4.92; N 5.01; H 4.36; K 4.66; L 3.71; P 4.76; E 4.99; I 3.45; T 5.11; S 4.19; M 4.26; G 4.56; V 4.2; Q 4.45; C 4.28
C2: T 3.22; R 4.17; P 4.2; M 3.62; S 3.63; Q 2.51; L 2.94; E 4.91; H 1.68; Y 2.87; I 2.65; W 2.82; A 1.94; V 2.1; D 4.96; N 2.91; K 4.17; F 2.59; G 3.72
